Patent US20230399641A1 (SHANGHAITECH UNIVERSITY, published 2023)

Biological target: extracellular protease domain of wildtype human ACE2 (residues 19-615) (human, UniProt Q9BYF1 19-615)
Sequence (Q9BYF1 19-615): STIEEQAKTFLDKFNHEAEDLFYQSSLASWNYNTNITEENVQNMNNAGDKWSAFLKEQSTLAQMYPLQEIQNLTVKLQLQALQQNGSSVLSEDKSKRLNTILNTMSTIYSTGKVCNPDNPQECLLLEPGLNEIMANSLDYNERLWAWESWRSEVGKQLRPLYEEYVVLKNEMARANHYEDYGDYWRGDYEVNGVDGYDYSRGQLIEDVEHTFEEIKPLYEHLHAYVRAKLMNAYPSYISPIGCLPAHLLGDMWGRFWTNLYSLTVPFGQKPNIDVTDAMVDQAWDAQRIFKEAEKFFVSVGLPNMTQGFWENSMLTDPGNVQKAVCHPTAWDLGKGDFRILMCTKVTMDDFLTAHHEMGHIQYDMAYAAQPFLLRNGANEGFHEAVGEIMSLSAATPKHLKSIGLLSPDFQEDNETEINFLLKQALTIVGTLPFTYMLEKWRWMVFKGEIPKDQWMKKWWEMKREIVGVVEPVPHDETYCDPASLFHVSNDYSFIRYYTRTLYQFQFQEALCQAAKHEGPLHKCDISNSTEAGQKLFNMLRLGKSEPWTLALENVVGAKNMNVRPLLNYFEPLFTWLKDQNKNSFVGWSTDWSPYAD

B1: receptor binding domain (RBD) of HCoV-NL63 spike (residues 481-616) (ligand)
chain: QHTDINFTATASFGGSCYVCKPHQVNISLNGNTSVCVRTSHFSIRYIYNRVKSGSPGDSSWHIYLKSGTCPFSFSKLNNFQKFKTICFSTVEVPGSCNFPLEATWHYTSYTIVGALYVTWSEGNSITGVPYPVSGI
Work on B1 yielded a Kd of 430 nM.
